B1: Compound 48 (peptide)
peptide: Isovaleryl-APAK([Ahx-γGlu-C18 diacid])PEEAATPEELQRYYISLRHYYNWLTRQRY-NH2
SMILES: CC[C@H](C)[C@H](NC(=O)[C@H](Cc1ccc(O)cc1)NC(=O)[C@H](Cc1ccc(O)cc1)NC(=O)[C@H](CCCNC(=N)N)NC(=O)[C@H](CCC(N)=O)NC(=O)[C@H](CC(C)C)NC(=O)[C@H](CCC(=O)O)NC(=O)[C@H](CCC(=O)O)NC(=O)[C@@H]1CCCN1C(=O)[C@@H](NC(=O)[C@H](C)NC(=O)[C@H](C)NC(=O)[C@H](CCC(=O)O)NC(=O)[C@H](CCC(=O)O)NC(=O)[C@@H]1CCCN1C(=O)[C@H](CCCCNC(=O)CCCCCNC(=O)CC[C@H](NC(=O)CCCCCCCCCCCCCCCCC(=O)O)C(=O)O)NC(=O)[C@H](C)NC(=O)[C@@H]1CCCN1C(=O)[C@H](C)NC(=O)CC(C)C)[C@@H](C)O)C(=O)N[C@@H](CO)C(=O)N[C@@H](CC(C)C)C(=O)N[C@@H](CCCNC(=N)N)C(=O)N[C@@H](Cc1c[nH]cn1)C(=O)N[C@@H](Cc1ccc(O)cc1)C(=O)N[C@@H](Cc1ccc(O)cc1)C(=O)N[C@@H](CC(N)=O)C(=O)N[C@@H](Cc1c[nH]c2ccccc12)C(=O)N[C@@H](CC(C)C)C(=O)N[C@H](C(=O)N[C@@H](CCCNC(=N)N)C(=O)N[C@@H](CCC(N)=O)C(=O)N[C@@H](CCCNC(=N)N)C(=O)N[C@@H](Cc1ccc(O)cc1)C(N)=O)[C@@H](C)O
B2: Compound 57 (peptide)
peptide: Isovaleryl-APAK([Ahx-γGlu-C18 diacid])PEEDATPEEAQRYYVSLRHYYNWLTRQRY-NH2
SMILES: CC(C)CC(=O)N[C@@H](C)C(=O)N1CCC[C@H]1C(=O)N[C@@H](C)C(=O)N[C@@H](CCCCNC(=O)CCCCCNC(=O)CC[C@H](NC(=O)CCCCCCCCCCCCCCCCC(=O)O)C(=O)O)C(=O)N1CCC[C@H]1C(=O)N[C@@H](CCC(=O)O)C(=O)N[C@@H](CCC(=O)O)C(=O)N[C@@H](CC(=O)O)C(=O)N[C@@H](C)C(=O)N[C@H](C(=O)N1CCC[C@H]1C(=O)N[C@@H](CCC(=O)O)C(=O)N[C@@H](CCC(=O)O)C(=O)N[C@@H](C)C(=O)N[C@@H](CCC(N)=O)C(=O)N[C@@H](CCCNC(=N)N)C(=O)N[C@@H](Cc1ccc(O)cc1)C(=O)N[C@@H](Cc1ccc(O)cc1)C(=O)N[C@H](C(=O)N[C@@H](CO)C(=O)N[C@@H](CC(C)C)C(=O)N[C@@H](CCCNC(=N)N)C(=O)N[C@@H](Cc1c[nH]cn1)C(=O)N[C@@H](Cc1ccc(O)cc1)C(=O)N[C@@H](Cc1ccc(O)cc1)C(=O)N[C@@H](CC(N)=O)C(=O)N[C@@H](Cc1c[nH]c2ccccc12)C(=O)N[C@@H](CC(C)C)C(=O)N[C@H](C(=O)N[C@@H](CCCNC(=N)N)C(=O)N[C@@H](CCC(N)=O)C(=O)N[C@@H](CCCNC(=N)N)C(=O)N[C@@H](Cc1ccc(O)cc1)C(N)=O)[C@@H](C)O)C(C)C)[C@@H](C)O
B3: Compound 54 (peptide)
peptide: Isovaleryl-APEK([Ahx-γGlu-C18 diacid])PEEDATPEEAQRYYVSLRHYYNWLTRQRY-NH2
SMILES: CC(C)CC(=O)N[C@@H](C)C(=O)N1CCC[C@H]1C(=O)N[C@@H](CCC(=O)O)C(=O)N[C@@H](CCCCNC(=O)CCCCCNC(=O)CC[C@H](NC(=O)CCCCCCCCCCCCCCCCC(=O)O)C(=O)O)C(=O)N1CCC[C@H]1C(=O)N[C@@H](CCC(=O)O)C(=O)N[C@@H](CCC(=O)O)C(=O)N[C@@H](CC(=O)O)C(=O)N[C@@H](C)C(=O)N[C@H](C(=O)N1CCC[C@H]1C(=O)N[C@@H](CCC(=O)O)C(=O)N[C@@H](CCC(=O)O)C(=O)N[C@@H](C)C(=O)N[C@@H](CCC(N)=O)C(=O)N[C@@H](CCCNC(=N)N)C(=O)N[C@@H](Cc1ccc(O)cc1)C(=O)N[C@@H](Cc1ccc(O)cc1)C(=O)N[C@H](C(=O)N[C@@H](CO)C(=O)N[C@@H](CC(C)C)C(=O)N[C@@H](CCCNC(=N)N)C(=O)N[C@@H](Cc1c[nH]cn1)C(=O)N[C@@H](Cc1ccc(O)cc1)C(=O)N[C@@H](Cc1ccc(O)cc1)C(=O)N[C@@H](CC(N)=O)C(=O)N[C@@H](Cc1c[nH]c2ccccc12)C(=O)N[C@@H](CC(C)C)C(=O)N[C@H](C(=O)N[C@@H](CCCNC(=N)N)C(=O)N[C@@H](CCC(N)=O)C(=O)N[C@@H](CCCNC(=N)N)C(=O)N[C@@H](Cc1ccc(O)cc1)C(N)=O)[C@@H](C)O)C(C)C)[C@@H](C)O
B4: Compound 49 (peptide)
peptide: Isovaleryl-APEK([Ahx-γGlu-C18 diacid])PEEDATPEELQRYYVLLRHYYNWLTRQRY-NH2
SMILES: CC(C)CC(=O)N[C@@H](C)C(=O)N1CCC[C@H]1C(=O)N[C@@H](CCC(=O)O)C(=O)N[C@@H](CCCCNC(=O)CCCCCNC(=O)CC[C@H](NC(=O)CCCCCCCCCCCCCCCCC(=O)O)C(=O)O)C(=O)N1CCC[C@H]1C(=O)N[C@@H](CCC(=O)O)C(=O)N[C@@H](CCC(=O)O)C(=O)N[C@@H](CC(=O)O)C(=O)N[C@@H](C)C(=O)N[C@H](C(=O)N1CCC[C@H]1C(=O)N[C@@H](CCC(=O)O)C(=O)N[C@@H](CCC(=O)O)C(=O)N[C@@H](CC(C)C)C(=O)N[C@@H](CCC(N)=O)C(=O)N[C@@H](CCCNC(=N)N)C(=O)N[C@@H](Cc1ccc(O)cc1)C(=O)N[C@@H](Cc1ccc(O)cc1)C(=O)N[C@H](C(=O)N[C@@H](CC(C)C)C(=O)N[C@@H](CC(C)C)C(=O)N[C@@H](CCCNC(=N)N)C(=O)N[C@@H](Cc1c[nH]cn1)C(=O)N[C@@H](Cc1ccc(O)cc1)C(=O)N[C@@H](Cc1ccc(O)cc1)C(=O)N[C@@H](CC(N)=O)C(=O)N[C@@H](Cc1c[nH]c2ccccc12)C(=O)N[C@@H](CC(C)C)C(=O)N[C@H](C(=O)N[C@@H](CCCNC(=N)N)C(=O)N[C@@H](CCC(N)=O)C(=O)N[C@@H](CCCNC(=N)N)C(=O)N[C@@H](Cc1ccc(O)cc1)C(N)=O)[C@@H](C)O)C(C)C)[C@@H](C)O
B5: Compound 51 (peptide)
peptide: Isovaleryl-APEK([Ahx-γGlu-C18 diacid])PEEDATPEELQRYYVQLRHYYNWLTRQRY-NH2
SMILES: CC(C)CC(=O)N[C@@H](C)C(=O)N1CCC[C@H]1C(=O)N[C@@H](CCC(=O)O)C(=O)N[C@@H](CCCCNC(=O)CCCCCNC(=O)CC[C@H](NC(=O)CCCCCCCCCCCCCCCCC(=O)O)C(=O)O)C(=O)N1CCC[C@H]1C(=O)N[C@@H](CCC(=O)O)C(=O)N[C@@H](CCC(=O)O)C(=O)N[C@@H](CC(=O)O)C(=O)N[C@@H](C)C(=O)N[C@H](C(=O)N1CCC[C@H]1C(=O)N[C@@H](CCC(=O)O)C(=O)N[C@@H](CCC(=O)O)C(=O)N[C@@H](CC(C)C)C(=O)N[C@@H](CCC(N)=O)C(=O)N[C@@H](CCCNC(=N)N)C(=O)N[C@@H](Cc1ccc(O)cc1)C(=O)N[C@@H](Cc1ccc(O)cc1)C(=O)N[C@H](C(=O)N[C@@H](CCC(N)=O)C(=O)N[C@@H](CC(C)C)C(=O)N[C@@H](CCCNC(=N)N)C(=O)N[C@@H](Cc1c[nH]cn1)C(=O)N[C@@H](Cc1ccc(O)cc1)C(=O)N[C@@H](Cc1ccc(O)cc1)C(=O)N[C@@H](CC(N)=O)C(=O)N[C@@H](Cc1c[nH]c2ccccc12)C(=O)N[C@@H](CC(C)C)C(=O)N[C@H](C(=O)N[C@@H](CCCNC(=N)N)C(=O)N[C@@H](CCC(N)=O)C(=O)N[C@@H](CCCNC(=N)N)C(=O)N[C@@H](Cc1ccc(O)cc1)C(N)=O)[C@@H](C)O)C(C)C)[C@@H](C)O

*1 amine or outer side, *2 acyl side, *3 side chain or, on linkers, in order; H or OH if unused. Side-chain parts run from the residue outwards. The star is where a group is joined. C18 diacid = O=C(O)CCCCCCCCCCCCCCCCC(=O)*; γGlu = O=C(O)[C@H](CCC(=O)[*:2])N[*:1]; Isovaleryl = CC(C)CC(=O)*; Ahx = NCCCCCC(=O)O

One may read the Ki as a dissociation constant, usually derived from enzyme kinetics or from competition with a known ligand.

For the test, the target named is T1, human NPY2 receptor (human, UniProt P49146 1-381).
T1 construct: whole, on cells; also called hNPY2-R; hNPY2R
T1 sequence (looked up): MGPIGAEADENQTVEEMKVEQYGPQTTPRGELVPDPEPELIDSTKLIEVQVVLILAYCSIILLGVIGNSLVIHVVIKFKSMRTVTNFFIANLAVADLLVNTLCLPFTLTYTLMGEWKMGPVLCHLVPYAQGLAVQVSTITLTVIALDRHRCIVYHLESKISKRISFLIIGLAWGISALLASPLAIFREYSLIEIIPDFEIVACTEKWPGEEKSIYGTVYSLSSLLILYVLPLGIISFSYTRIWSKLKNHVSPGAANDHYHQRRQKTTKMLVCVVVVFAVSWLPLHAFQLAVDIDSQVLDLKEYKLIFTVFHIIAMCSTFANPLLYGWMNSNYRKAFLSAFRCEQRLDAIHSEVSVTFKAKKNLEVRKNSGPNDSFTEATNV
The test is described as follows: RLB: displacement of 125I-PYY(1-36) from hNPY2R membranes. (In general: In a radioligand displacement assay an active substance lowers the binding of a labelled ligand.)
The molecule B1 had a Ki of 1.54 nM.

Take B2: the Ki was 2.07 nM.

For B3, the Ki came out at 8.97 nM.

Regarding B4, the inhibition constant (Ki) came to 11.6 nM.

Molecule B5 returned a Ki of 2.59 nM.

The values above are taken from patent US20260015399A1 (Boehringer Ingelheim, published 2026).
